Measured values: the supplement of paper PMC9732359
± gives the uncertainty stated by the source.

Assay: protein stability index of a GFP-peptide fusion (yeast GPS) (PSI 1-4); higher = more stable; sorted into four equal gates, so the index is relative within each strain
Conditions: ubr1∆
Procedure, shortened: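 Plasmids isolated from each sorting gate were PCR-amplified and Illumina-sequenced, and barcodes assigned the reads to strains. The gates, four of equal size, were set by GFP/Cherry fluorescence ratio on mid-log cultures in leucine-free medium. These cultures were yeast carrying a pooled library of tiled 17-residue yeast protein peptides fused downstream of GFP on a plasmid that also expresses Cherry. The protein stability index is the sum of every gate's read frequency times its gate number.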

EFTSKIGFTIKEYENHS [SMC1] and EGDASPFTDITVEGISK [RPB2] are within error of each other in protein stability index: 3.01 ± 0.063 for the first, 3.07 ± 0.21 for the second.

Going from EGDGAKAAISFGAKPEE [YJL041W/NSP1] to EGEPVNSPNYFVAKLAA [COR1], the protein stability index falls from 3.43 ± 0.053 to 3.14 ± 0.17.

Compared with EGKYIVDVAKDINVKDL [RPT6], EGNTVLEKGNNPSVKQG [SWP82] is lower in protein stability index: 3.24 ± 0.093 for the first, 2.87 ± 0.064 for the second.

Compared with EGNYRNLNNLKQENAYL [RPB8], EGQADIDMESDVEDDDK [POP7] is lower in protein stability index: 3.43 ± 0.068 for the first, 3.27 ± 0.042 for the second.

First: EGRLLDNVQANDPAREK [SNF12]
Second: EGSKSHPFGHALVAGIE [RPL27A]
The protein stability index of the first is higher: 3.18 ± 0.042 for the first, 2.76 ± 0.047 for the second.

Going from EHKSQVVLYNYYLGQYY [CSN12] to EIALKGLESLLNIGLGA [YCS4], the protein stability index rises from 2.03 ± 0.055 to 2.77 ± 0.21.

First: EIDVENHDRINISNNLQ [RPN8]
Second: EIGILDHVDGSSEFVSQ [RRP46]
The protein stability index of the first is higher: 3.21 ± 0.054 for the first, 2.5 ± 0.064 for the second.

First: EIGITQQRIVSAYEASM [RRP4]
Second: EIIFLGAQIVSKQIFTH [ARP9]
The protein stability index of the first is higher: 2.85 ± 0.065 for the first, 1.25 ± 0.036 for the second.

First: EIKKLLATNSLVEEFML [DIS3]
Second: EINLSKIFQTTPEKDLF [YCS4]
The protein stability index of the first is lower: 2.3 ± 0.048 for the first, 2.7 ± 0.055 for the second.

Compared with EINPFLLGTMAGGAADC [PRE2], EINSVGNPGLPQYQYQR [ITC1] is higher in protein stability index: 2.61 ± 0.15 for the first, 3.16 ± 0.067 for the second.

Going from EITDAYCFAKNDLFFNN [YMR129W/POM152] to EITSVLSNLHESNKRYR [SNF12], the protein stability index rises from 2.61 ± 0.056 to 3.08 ± 0.052.

Compared with EIVDTYQEDIFVSESPS [ISW2], EKACQVLKYMLLSKIML [RPN6] is lower in protein stability index: 2.6 ± 0.07 for the first, 1.41 ± 0.031 for the second.

Going from EKAKEMIRLLGSESDDS [ECM29] to EKASGFEDSMQFKKLTH [PRP8], the protein stability index rises from 1.53 ± 0.14 to 3.01 ± 0.084.

First: EKCKEINVETVYDIMAL [BRR2]
Second: EKGNAKMIDFATLSKLK [SIR3]
The protein stability index of the first is lower: 2.5 ± 0.046 for the first, 3.24 ± 0.035 for the second.

First: EKINRMIIFLKNYDATD [CSI1]
Second: EKITQISLLCKNFKGIE [PCI8]
The protein stability index of the first is lower: 2.26 ± 0.028 for the first, 2.5 ± 0.035 for the second.

First: EKKPAAKKTSTSTDGKK [HTB1]
Second: EKLTSKSLDEQLLLLSD [LRP1]
The protein stability index of the first is higher: 3.65 ± 0.25 for the first, 3.31 ± 0.036 for the second.

Compared with EKTYTKAPKIQRLVTPQ [RPS6A], EKVFNAYPAAREQFLNA [FAS1] is higher in protein stability index: 2.22 ± 0.037 for the first, 3.22 ± 0.053 for the second.

First: ELAGDEELEAEQIDVFS [PRP8]
Second: ELDSKTRKILEILNECH [MED4]
The protein stability index of the first is lower: 2.82 ± 0.13 for the first, 3.21 ± 0.043 for the second.

ELEFIQSLANIQYVTYL [SOH1] and ELEKYNELERNRKIYQF [SMC3] are within error of each other in protein stability index: 2.72 ± 0.041 for the first, 2.67 ± 0.078 for the second.

First: ELEQLVEFNRKVVIPNL [RPN3]
Second: ELIALNLSEARLVIKEA [RPB4]
The protein stability index of the first is higher: 3.25 ± 0.11 for the first, 2.73 ± 0.18 for the second.

First: ELISFKERTKSLEHELK [YIL149C/MLP2]
Second: ELISYRNESLKNNSSIR [SRB8]
The protein stability index of the first is lower: 2.78 ± 0.083 for the first, 3.05 ± 0.049 for the second.

ELLSMGNAKESKALLRE [SRP72] and ELNDNPAWFNNPRKRAI [YMR153W/NUP53] are within error of each other in protein stability index: 3.13 ± 0.16 for the first, 2.98 ± 0.051 for the second.

Going from ELNQDRLGGDDLRIRIK [SNF5] to ELNVDSMDVDDKNSGVK [ITC1], the protein stability index falls from 2.91 ± 0.15 to 1.43 ± 0.06.

Compared with ELQEKNVELLNCIRILA [YIL149C/MLP2], ELTDNMSDFVPIDAGLN [MCD1] is higher in protein stability index: 1.68 ± 0.039 for the first, 3.21 ± 0.12 for the second.

Going from ELTSFSSQPLEPLSDTE [DSN1] to ELVETSEVRKAVSIETA [FAS2], the protein stability index falls from 3.21 ± 0.076 to 1.27 ± 0.27.

Going from ELYSFQQLVDSEKRLDH [SNF12] to EMARTKKACIIFFDEID [RPT1], the protein stability index rises from 1.57 ± 0.053 to 2.56 ± 0.047.

Compared with EMDSVSKSMKFSRRFDC [CSN9], EMLEENFPEASKLSEHL [YCG1] is lower in protein stability index: 2.85 ± 0.047 for the first, 2.49 ± 0.15 for the second.

EMNLHVPQSEETRAELS [RPO21] and ENDEEDIYMHDVNSASK [RRP4] are within error of each other in protein stability index: 3.15 ± 0.11 for the first, 3.31 ± 0.059 for the second.

Going from ENDEEFYKNKYSSKPYK [RPN2] to ENDQQDNEEWMNDVINT [LIN1], the protein stability index rises from 2.19 ± 0.17 to 2.98 ± 0.071.

ENEDGNIEERKEKIQHE [BRR2] and ENEFVVLLDARDIEKIT [CDC53] are within error of each other in protein stability index: 3.3 ± 0.15 for the first, 3.08 ± 0.14 for the second.

ENEVENINATNTSVLMK [YCS4] and ENGTHNDEVNEDEEDDN [YCG1] are within error of each other in protein stability index: 3.36 ± 0.087 for the first, 3.49 ± 0.14 for the second.

ENIENEEYVINLLKVSV [ECM29] and ENNRLLFECRTCSYVEE [RPB9] are within error of each other in protein stability index: 3.1 ± 0.11 for the first, 3.29 ± 0.16 for the second.

Compared with ENNTDSARKELEQKIHE [SMC1], ENRFQDTLLLLPTDGGL [POP4] is lower in protein stability index: 3.01 ± 0.1 for the first, 2.44 ± 0.082 for the second.

First: ENVKIINYLLTLAITTV [RPN2]
Second: EPLAFYLEESFTNLGII [RGR1]
The protein stability index of the first is higher: 2.99 ± 0.055 for the first, 2.57 ± 0.045 for the second.

Going from EPLSDTEEPDLAIADVE [DSN1] to EPSYIFEYLATVMYQRR [PRE4], the protein stability index falls from 3.24 ± 0.099 to 2.12 ± 0.079.

Going from EQFKMVSMITDHNALPQ [POP1] to EQILQWVTEVLGNDIPH [BRR2], the protein stability index rises from 2.85 ± 0.13 to 3.19 ± 0.058.

Compared with EQKLVDLLKFENISLAE [BRR2], EQNHLDNNYNTAETNNK [YDL088C/ASM4] is higher in protein stability index: 2.58 ± 0.055 for the first, 2.93 ± 0.065 for the second.

EQPCVDIISGKIHSILP [YJR042W/NUP85] and EQQKGQQTAQTQLEQQR [SNF5] are within error of each other in protein stability index: 3 ± 0.053 for the first, 3.1 ± 0.053 for the second.

For EQRKQKLSKILPRYQEL [SMC3], the protein stability index was 3.12 ± 0.1.
